Measured values as given in patent US20210301005A1 (Genentech, published 2021).
Like-named read-outs stand apart in the source and are kept apart here. One block for each binder: values may come before it.

How the values were obtained:
[1] = molecular target: T1, human TGFβ1, mature receptor-binding domain (human, UniProt P01137 279-390); assay: BIAcore T200
T1 construct: Peprotech; also called TGFb1
Experimental: (§1) For binding affinity determinations of all humanized 2A10 antibodies, Surface Plasmon Resonance (SPR) measurement with a BIAcore™-T200 instrument was used. Briefly, series S CM5 biosensor chip with protein A was first applied to capture each humanized 2A10 variant to achieve approximately 100 response units (RU) on each flow cell, following by injection of 3-fold serial dilutions of human TGFβ1, TGFβ2 or TGFβ3 (0.02 nM to 5 nM) in HBS-EP buffer (0.01M HEPES pH 7.4, 0.15M NaCl, 3 mM EDTA and 0.05% v/v surfactant P20) at 25° C. with a flow rate of 50 μl/min for kinetics measurement. Association rates (ko.) and dissociation rates (koff) were calculated using a simple one-to-one Langmuir binding model (BIAcore T200 evaluation software version 2.0) to determine the equilibrium dissociation constant (KD), which was calculated as the ratio koff/kₒₙ.
(§2) Binding affinity determinations of all humanized 4A11 antibodies were performed using SPR measurement with a BIAcore™-T200 instrument, as described above in Example 6 ([…]).

[2] = molecular target: T2, human TGFβ2, mature receptor-binding domain (human, UniProt P09858 303-414 (pig entry), The mature TGFβ2 is a disulfide-linked homodimer of this 112-residue chain. The 4A11 epitope spans both monomers (p-1207).); assay: BIAcore T200
T2 construct: Peprotech; also called TGFb2
T2 sequence: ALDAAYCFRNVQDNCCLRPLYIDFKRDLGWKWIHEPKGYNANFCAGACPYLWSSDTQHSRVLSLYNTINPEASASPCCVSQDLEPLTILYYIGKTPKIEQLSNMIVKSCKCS
Experimental: as §1, §2

[3] = molecular target: T3, human TGFβ3, mature dimeric form (human, UniProt P10600 301-412); assay: BIAcore T200
T3 construct: Peprotech, expressed in E. coli; also called TGFb3
T3 sequence: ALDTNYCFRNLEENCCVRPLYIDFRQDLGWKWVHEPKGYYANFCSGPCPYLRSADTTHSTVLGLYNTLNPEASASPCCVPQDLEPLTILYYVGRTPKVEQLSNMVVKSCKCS
Experimental: as §1, §2

[4] = molecular target: T1, human TGFβ1, mature receptor-binding …; assay: cell-based or functional assay
[5] = molecular target: T2, human TGFβ2, mature receptor-binding …; assay: cell-based or functional assay
[6] = molecular target: T3, human TGFβ3, mature dimeric form; assay: cell-based or functional assay
[7] = molecular target: T1, human TGFβ1, mature receptor-binding …; assay: cell-based or functional assay; remark: listed apart in the source
[8] = molecular target: T2, human TGFβ2, mature receptor-binding …; assay: cell-based or functional assay; remark: listed apart in the source
[9] = molecular target: T3, human TGFβ3, mature dimeric form; assay: cell-based or functional assay; remark: listed apart in the source
[10] = molecular target: T2, human TGFβ2, mature receptor-binding …; assay: BIAcore T200; remark: listed apart in the source
Experimental: as §1, §2

[11] = molecular target: T3, human TGFβ3, mature dimeric form; assay: BIAcore T200; remark: listed apart in the source
Experimental: as §1, §2

[12] = molecular target: T1, human TGFβ1, mature receptor-binding …; assay: cell-based or functional assay; remark: listed apart in the source
[13] = molecular target: T2, human TGFβ2, mature receptor-binding …; assay: cell-based or functional assay; remark: listed apart in the source
[14] = molecular target: T3, human TGFβ3, mature dimeric form; assay: cell-based or functional assay; remark: listed apart in the source
[15] = molecular target: T1, human TGFβ1, mature receptor-binding …; assay: BIAcore T200; remark: listed apart in the source
Experimental: as §1, §2

[16] = molecular target: T2, human TGFβ2, mature receptor-binding …; assay: BIAcore T200; remark: listed apart in the source
Experimental: as §1, §2

[17] = molecular target: T3, human TGFβ3, mature dimeric form; assay: BIAcore T200; remark: listed apart in the source
Experimental: as §1, §2

[18] = molecular target: T1, human TGFβ1, mature receptor-binding …; assay: cell-based or functional assay; remark: listed apart in the source
[19] = molecular target: T2, human TGFβ2, mature receptor-binding …; assay: cell-based or functional assay; remark: listed apart in the source
[20] = molecular target: T3, human TGFβ3, mature dimeric form; assay: cell-based or functional assay; remark: listed apart in the source
[21] = molecular target: T1, human TGFβ1, mature receptor-binding …; assay: SPR
[22] = molecular target: T2, human TGFβ2, mature receptor-binding …; assay: SPR
[23] = molecular target: T3, human TGFβ3, mature dimeric form; assay: SPR
[24] = molecular target: T2, human TGFβ2, mature receptor-binding …; assay: SPR; remark: listed apart in the source
[25] = molecular target: T4, mouse TGFβ2, mature peptide (mouse, UniProt P27090 303-414); assay: Biacore SPR
T4 construct: mature
T4 sequence (looked up): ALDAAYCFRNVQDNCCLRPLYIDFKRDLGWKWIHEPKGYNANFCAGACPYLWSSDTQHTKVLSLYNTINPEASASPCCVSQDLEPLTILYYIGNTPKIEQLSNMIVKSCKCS

[26] = molecular target: T2, human TGFβ2, mature receptor-binding …; assay: Biacore SPR
[27] = molecular target: T2, human TGFβ2, mature receptor-binding …; assay: BIAcore T200; remark: listed apart in the source
[28] = molecular target: T4, mouse TGFβ2, mature peptide; assay: cell-based or functional assay
[29] = molecular target: T2, human TGFβ2, mature receptor-binding …; assay: cell-based or functional assay; remark: listed apart in the source
[30] = molecular target: T1, human TGFβ1, mature receptor-binding …; assay: cell-based or functional assay; remark: listed apart in the source
[31] = molecular target: T2, human TGFβ2, mature receptor-binding …; assay: cell-based or functional assay; remark: listed apart in the source
[32] = molecular target: T3, human TGFβ3, mature dimeric form; assay: cell-based or functional assay; remark: listed apart in the source
[33] = molecular target: T1, human TGFβ1, mature receptor-binding …; assay: cell-based or functional assay; remark: listed apart in the source
[34] = molecular target: T2, human TGFβ2, mature receptor-binding …; assay: cell-based or functional assay; remark: listed apart in the source
[35] = molecular target: T3, human TGFβ3, mature dimeric form; assay: cell-based or functional assay; remark: listed apart in the source
[36] = molecular target: T2, human TGFβ2, mature receptor-binding …; assay: cell-based or functional assay; remark: listed apart in the source

T1 sequence (P01137 279-390 limits assumed): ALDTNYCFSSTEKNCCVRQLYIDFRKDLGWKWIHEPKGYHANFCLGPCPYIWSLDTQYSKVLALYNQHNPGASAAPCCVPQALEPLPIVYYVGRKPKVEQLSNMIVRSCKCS

B3: 1D11 (antibody, V domains shown)
VH: QVQLQQSGPELVRPGASVKLSCKASGYIFITYWMNWVKQRPGQGLEWIGQIFPASGSTNYNEMFEGKATLTVDTSSSTAYMQLSSLTSEDSAVYYCARGDGNYALDAMDYWGQGTSVTVSS
VL: DIVLTQSPASLAVSLGQRATISCRASESVDSYGNSFMHWYQQKSGQPPKLLIYLASNLESGVPARFSGSGSRTDFTLTIDPVEADDAATYYCQQNNEDPLTFGAGTKLEIK
notes: also called pan-TGFβ antibody 1D11
Blocking IC50 [18]: 0.5 nM | Blocking IC50 [19]: 3.6 nM | Blocking IC50 [20]: 0.04 nM | Kd [21]: 0.038 nM | Kd [22]: 0.009 nM | Kd [23]: 0.007 nM

B4: 6F12 (antibody, V domains shown)
VH: QVQLKESGPGLVQPSQTLSLTCTVSGFSLTTYNVHWVRQPPGKGLEWMGLIWNTGGTRYNSALKSRLSISKDTSKSQVFLRMNSLQTEDTATYYCARDPVPNKWHFDFWGPGTMVTVSS
VL: DIQMTQSPASLSASLGETVTIECLASEDIYSNLAWYQQKPGKSPQLLIYDARSLQDGVPSRFSGSESGPQYSLEINSLQSEDAVTYFCQQHHAYPFTFGSGTKLEIK
notes: anti-TGFβ2; called rat and rabbit in different places; also called rat 6F12; r6F12
Kd [24]: < 0.01 nM | Kd [25]: < 0.001 nM | Kd [26]: < 0.001 nM | Kd [27]: ≤ 0.0005 nM | IC50 (read off the curve) [28]: ~0.06 nM | IC50 (read off the curve) [29]: ~0.03 nM | Blocking IC50 [18]: > 500 nM | Blocking IC50 [19]: 0.04 nM | Blocking IC50 [20]: > 500 nM | HEKBlue TGFβ blocking IC50 [30]: > 200 nM | HEKBlue TGFβ blocking IC50 [31]: 0.004 nM | HEKBlue TGFβ blocking IC50 [32]: > 200 nM | HEKBlue TGFβ blocking IC50 [33]: > 200 nM | HEKBlue TGFβ blocking IC50 [34]: 0.004 nM | HEKBlue TGFβ blocking IC50 [35]: > 200 nM | cell-based IC50 [36]: < 0.25 nM | fold potency against 1D11 [36]: ~100 fold | Kd [22]: < 0.001 nM

Other lines, results leading:

Kd [1]: > 5 nM | Kd [2]: 0.0063 nM | Kd [3]: 0.0097 nM | HEKBlue TGFβ blocking IC50 [4]: > 200 nM | HEKBlue TGFβ blocking IC50 [5]: 0.09 nM | HEKBlue TGFβ blocking IC50 [6]: 0.03 nM | HEKBlue TGFβ blocking IC50 [7]: > 200 nM | HEKBlue TGFβ blocking IC50 [8]: 0.09 nM | HEKBlue TGFβ blocking IC50 [9]: 0.03 nM | Kd [10]: 0.0063 nM | Kd [11]: 0.0097 nM | HEKBlue TGFβ blocking IC50 [12]: > 200 nM | HEKBlue TGFβ blocking IC50 [13]: 0.09 nM | HEKBlue TGFβ blocking IC50 [14]: 0.03 nM | Kd [15]: > 5 nM | Kd [16]: 0.0063 nM | Kd [17]: 0.0097 nM
B1: h4A11.v7 (antibody, human IgG1, kappa, N297G)
heavy: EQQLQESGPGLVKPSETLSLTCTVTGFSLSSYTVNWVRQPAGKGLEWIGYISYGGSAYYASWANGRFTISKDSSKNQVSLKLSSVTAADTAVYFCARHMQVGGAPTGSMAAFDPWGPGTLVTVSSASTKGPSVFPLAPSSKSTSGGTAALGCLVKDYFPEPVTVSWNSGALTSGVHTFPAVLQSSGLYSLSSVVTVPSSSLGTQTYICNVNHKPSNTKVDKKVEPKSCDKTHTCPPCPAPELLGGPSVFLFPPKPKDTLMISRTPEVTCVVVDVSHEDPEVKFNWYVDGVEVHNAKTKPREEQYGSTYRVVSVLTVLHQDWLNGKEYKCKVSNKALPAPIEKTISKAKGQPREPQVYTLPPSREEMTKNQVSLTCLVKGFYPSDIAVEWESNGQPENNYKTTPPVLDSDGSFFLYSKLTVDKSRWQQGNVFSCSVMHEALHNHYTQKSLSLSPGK
light: EAVLTQSPGTLSLSPGERATLSCQSSQSVYNNNYLSWFQQKPGQPPRLLIYGASTLTSGVPDRFSGSGSGTDFTLTISRLEPEDFAVYYCAGGYSGSSDKYAFGGGTKVEIKRTVAAPSVFIFPPSDEQLKSGTASVVCLLNNFYPREAKVQWKVDNALQSGNSQESVTEQDSKDSTYSLSSTLTLSKADYEKHKVYACEVTHQGLSSPVTKSFNRGEC

Blocking IC50 [18]: 0.013 nM | Blocking IC50 [19]: > 200 nM | Blocking IC50 [20]: > 200 nM | Kd [21]: 0.008 nM
B2: 21D1 (antibody, V domains shown)
VH: QVQLVQSGAEVKKPGASVKVSCKASGYTFTDYNIHWVRQAPGQGLEWMGYIYPYDGETGYNQKFKSRVTMTTDTSTSTAYMELRSLRSDDTAVYYCARGYRWFAYWGQGTLVTVSS
VL: DIQMTQSPSSLSASVGDRVTITCRASSSVPYMHWFQQKPGKAPKSLIYATSNPAYGVPSRFSGSGSGTDFTLTISSLQPEDFATYYCQQWDLNPPAFGQGTKLEIKR
